Where a chain is given by its changes, count along the chain named.
B1: unnamed (protein)
chain: MKAPLFKLAAFTLGVSLSSVALATNPGGGGAGSNPDTGTGFPGVSSFSADGSFATTSGSAGLSCTVFRPSTLGANGLKHPIIVWGNGTTASPSTYSGILEHWASHGFVVIAANTSNAGTGQDMLNCVDYLTTQNNRSTGTYANKLDLNRIGAAGHSQGGGGTIMAGQDYRIKVTAPFQPYTIGLGHNSSSQSNQNGPMFLMTGSADTIASPTLNALPVYNRANVPVFWGELSGASHFEPMGSAGDFRGPSTAWFRYHLMDDASAEDTFYGSNCDLCTDNDWDVRRKGIN
B2: unnamed (protein)
chain: B1 chain with S156A, M240V
B3: unnamed (protein)
chain: B1 chain with D206A, M240V
B4: unnamed (protein)
chain: B1 chain with N187A, M240V
B5: unnamed (protein)
chain: B1 chain with Y180F, M240V
B6: unnamed (protein)
chain: B1 chain with F237I
B7: unnamed (protein)
chain: B1 chain with M240V
B8: unnamed (protein)
chain: B1 chain with T88Y, M240V

Substrate: PET
Test: Proxy for plastic degradation [Released monomer concentration (HPLC/LC-MS) (TPA+MHET+BHET)]
Details: pH 9

Row | Protein | Proxy for plastic degradation [µM]
1 | B1 | 870
2 | B2 | 10
3 | B3 | 10
4 | B4 | 920
5 | B5 | 375
6 | B6 | 600
7 | B7 | 1020
8 | B8 | 345

Reference: the PETadex activity labels (doi:10.1101/2025.08.30.673199)
